Data taken from patent publication US20160333065A1 (ACADEMISCH ZIEKENHUIS LEIDEN H O D N LUMC, published 2016).

B1: PRAME 16-24 SMSVWTSPR (peptide)
peptide: SMSVWTSPR
notes: also called PRA16-24; PRA(16-24)
B2: PRAME 80-88 CLPLGVLMK (peptide)
peptide: CLPLGVLMK
B3: PRAME 429-438 HLIGLSNLTH (peptide)
peptide: HLIGLSNLTH
B4: PRAME 242-251 CTWKLPTLAK (peptide)
peptide: CTWKLPTLAK
B5: PRAME 50-58 RELFPPLFM (peptide)
peptide: RELFPPLFM
B6: PRAME 94-101 LETFKAVL (peptide)
peptide: LETFKAVL
B7: PRAME 37-45 DEALAIAAL (peptide)
peptide: DEALAIAAL
B8: PRAME 50-59 RELFPPLFMA (peptide)
peptide: RELFPPLFMA
B9: PRAME 246-255 LPTLAKFSPY (peptide)
peptide: LPTLAKFSPY
B10: PRAME 53-61 FPPLFMAAF (peptide)
peptide: FPPLFMAAF
B11: PRAME 48-57 LPRELFPPLF (peptide)
peptide: LPRELFPPLF
B12: PRAME 253-262 SPYLGQMINL (peptide)
peptide: SPYLGQMINL
B13: PRAME 186-194 GACDELFSY (peptide)
peptide: GACDELFSY
B14: PRAME 48-56 LPRELFPPL (peptide)
peptide: LPRELFPPL
B15: PRAME 267-275 LSHIHASSY (peptide)
peptide: LSHIHASSY
B16: PRAME 292-302 FLSLQCLQALY (peptide)
peptide: FLSLQCLQALY
B17: PRAME 405-414 CSQLTTLSFY (peptide)
peptide: CSQLTTLSFY
B18: PRAME 275-284 YISPEKEEQY (peptide)
peptide: YISPEKEEQY
B19: PRAME 294-302 SLQCLQALY (peptide)
peptide: SLQCLQALY
B20: PRAME peptide YISPEKEEQY (peptide)
peptide: YISPEKEEQY
notes: also called start 275
B21: PRAME peptide SLQCLQALY (peptide)
peptide: SLQCLQALY
notes: also called start 294
B22: PRAME peptide GTLHLERLAY (peptide)
peptide: GTLHLERLAY
notes: also called start 453
B23: PRAME peptide FLSLQCLQALY (peptide)
peptide: FLSLQCLQALY
notes: also called start 292
B24: PRAME peptide LSHIHASSY (peptide)
peptide: LSHIHASSY
B25: PRAME peptide CSQLTTLSFY (peptide)
peptide: CSQLTTLSFY
notes: also called start 405
B26: PRAME 36-45 KDEALAIAAL (peptide)
peptide: KDEALAIAAL
B27: PRAME peptide MINLRRLL (peptide)
peptide: MINLRRLL
notes: also called start 259
B28: PRAME peptide INLRRLLL (peptide)
peptide: INLRRLLL
notes: also called start 260
B29: PRAME peptide QMINLRRLLL (peptide)
peptide: QMINLRRLLL
notes: also called start 258
B30: PRAME peptide YLHARLREL (peptide)
peptide: YLHARLREL
notes: also called start 462
B31: PRAME 258-267 QMINLRRLLL (peptide)
peptide: QMINLRRLLL
B32: PRAME 260-267 INLRRLLL (peptide)
peptide: INLRRLLL
B33: PRAME 259-266 MINLRRLL (peptide)
peptide: MINLRRLL
B34: PRAME peptide KDEALAIAAL (peptide)
peptide: KDEALAIAAL
notes: also called start 36
B35: PRAME peptide YEDIHGTLHL (peptide)
peptide: YEDIHGTLHL
notes: also called start 448
B36: PRAME peptide DEALAIAAL (peptide)
peptide: DEALAIAAL
notes: also called start 37
B37: PRAME peptide RELFPPLFM (peptide)
peptide: RELFPPLFM
notes: also called start 50
B38: PRAME peptide CTWKLPTLAK (peptide)
peptide: CTWKLPTLAK
notes: also called start 242
B39: PRAME peptide CLPLGVLMK (peptide)
peptide: CLPLGVLMK
notes: also called start 80
B40: PRAME peptide HLIGLSNLTH (peptide)
peptide: HLIGLSNLTH
notes: also called start 429
B41: PRAME peptide SMSVWTSPR (peptide)
peptide: SMSVWTSPR
notes: also called PRA16-24; start 16
B42: PRAME peptide RLAYLHARLR (peptide)
peptide: RLAYLHARLR
notes: also called start 459
B43: PRAME peptide RELFPPLFMA (peptide)
peptide: RELFPPLFMA
notes: also called start 50
B44: PRAME peptide LETFKAVL (peptide)
peptide: LETFKAVL
notes: also called start 94
B45: PRAME peptide LLRHVMNPL (peptide)
peptide: LLRHVMNPL
notes: also called start 316
B46: PRAME peptide GQHLHLETF (peptide)
peptide: GQHLHLETF
notes: also called start 89
B47: PRAME peptide VLYPVPLESY (peptide)
peptide: VLYPVPLESY
notes: also called start 439
B48: PRAME peptide LQHLIGLSNL (peptide)
peptide: LQHLIGLSNL
notes: also called start 427
B49: PRAME peptide ALYVDSLFF (peptide)
peptide: ALYVDSLFF
notes: also called start 300
B50: PRAME 433-441 … (peptide)
peptide: LSNLTHVLY
B51: PRAME 453-462 GTLHLERLAY (peptide)
peptide: GTLHLERLAY
B52: PRAME peptide LPRELFPPLF (peptide)
peptide: LPRELFPPLF
notes: also called start 48
B53: PRAME peptide LPRELFPPL (peptide)
peptide: LPRELFPPL
notes: also called start 48
B54: PRAME peptide QPFIPVEVL (peptide)
peptide: QPFIPVEVL
notes: also called start 170
B55: PRAME peptide EPILCPCFM (peptide)
peptide: EPILCPCFM
notes: also called start 499
B56: PRAME peptide SPYLGQMINL (peptide)
peptide: SPYLGQMINL
B57: PRAME peptide GACDELFSY (peptide)
peptide: GACDELFSY
notes: also called start 186
B58: PRAME peptide FPPLFMAAF (peptide)
peptide: FPPLFMAAF
notes: also called start 53
B59: PRAME peptide LPTLAKFSPY (peptide)
peptide: LPTLAKFSPY
notes: also called start 246
B60: PRAME peptide IPVEVLVDL (peptide)
peptide: IPVEVLVDL
notes: also called start 173
B61: PRAME 300-308 ALYVDSLFF (peptide)
peptide: ALYVDSLFF
B62: PRAME 427-436 LQHLIGLSNL (peptide)
peptide: LQHLIGLSNL
B63: PRAME 89-97 GQHLHLETF (peptide)
peptide: GQHLHLETF
B64: PRAME 316-324 LLRHVMNPL (peptide)
peptide: LLRHVMNPL

The binders below were run against T1, HLA-A3 (A*0301) (human) (assay: competition vs KVFPC(FI)ALINK on stripped B-LCL, FACS).
T1 construct: HLA class I on acid-stripped EBV-transformed B cells (B-LCL)
In the case of B1, the IC50 is reported as < 1000 nM. For B2, the IC50 was < 1000 nM. With B3 the IC50 was 4000 nM. Work on B4 yielded an IC50 of 700 nM.

These binders were tested against T2, HLA-B61 (B*4002) (human) (assay: competition vs GEFGGC(FI)GSV on stripped B-LCL, FACS).
T2 construct: HLA class I on acid-stripped EBV-transformed B cells (B-LCL)
With B5 the IC50 was < 1000 nM. In the case of B6, the IC50 is reported as < 1000 nM. B7 was tested, and the IC50 was < 1000 nM. For B8, the IC50 was < 1000 nM.

What follows are binders tested against T3, HLA-B35 (B*3501) (human) (assay: competition vs NPDIVC(FI)YQY on stripped B-LCL, FACS).
T3 construct: HLA class I on acid-stripped EBV-transformed B cells (B-LCL)
B9 gave an IC50 of 110 nM. With B10 the IC50 was < 1000 nM. With B11 the IC50 was 1580 nM. For B12, the IC50 was 1980 nM. With B13 the IC50 was 2600 nM. For B14, the IC50 was < 1000 nM.

Each binder was assayed against T4, HLA-A1 (A*0101) (human) (assay: competition vs YLEPAC(FI)AKY on stripped B-LCL, FACS).
T4 construct: HLA class I on acid-stripped EBV-transformed B cells (B-LCL)
In the case of B15, the IC50 is reported as 1000 nM. For B16, the IC50 was 1000 nM. In the case of B17, the IC50 is reported as < 1000 nM. In the case of B18, the IC50 is reported as 3000 nM. In the case of B19, the IC50 is reported as 2000 nM.

Each binder was assayed against T5, HLA-A1 (A*0101) (human) (assay: cell competition vs YLEPAC(FI)AKY, stripped CAA B-LCL, FACS).
T5 construct: Acid-stripped B-LCL
B20 showed an IC50 of 3000 nM. Binder B21 has an IC50 of 2000 nM. B22 was tested, and the IC50 was 2000 nM. Work on B23 yielded an IC50 of 1000 nM. With B24 the IC50 was 1000 nM. With B25 the IC50 was > 1000 nM.

Each binder was assayed against T6, HLA-B60 (B*4001) (human) (assay: competition vs KESTC(FI)HLVL on stripped B-LCL, FACS).
T6 construct: HLA class I on acid-stripped EBV-transformed B cells (B-LCL)
For B5, the IC50 was 1480 nM. Work on B7 yielded an IC50 of 1550 nM. With B26 the IC50 was 2910 nM.

What follows are binders tested against T7, HLA-B8 (B*0801) (human) (assay: cell competition vs FLRGRAC(FI)GL, stripped Vavy B-LCL, FACS).
T7 construct: Acid-stripped B-LCL
For B27, the IC50 was < 1000 nM. In the case of B28, the IC50 is reported as < 1000 nM. With B29 the IC50 was 1670 nM. For B30, the IC50 was < 1000 nM.

The binders below were run against T8, HLA-B8 (B*0801) (human) (assay: competition vs FLRGRAC(FI)GL on stripped B-LCL, FACS).
T8 construct: HLA class I on acid-stripped EBV-transformed B cells (B-LCL)
B31 gave an IC50 of 1670 nM. In the case of B32, the IC50 is reported as < 1000 nM. B33 was tested, and the IC50 was < 1000 nM.

These binders were tested against T9, HLA-B60 (B*4001) (human) (assay: cell competition vs KESTC(FI)HLVL, stripped DKB B-LCL, FACS).
T9 construct: Acid-stripped B-LCL
B34 showed an IC50 of 2910 nM. For B35, the IC50 was < 1000 nM. Binder B36 has an IC50 of 1550 nM. For B37, the IC50 was 1480 nM.

Each binder was assayed against T10, HLA-A3 (A*0301) (human) (assay: cell competition vs KVFPC(FI)ALINK, stripped EKR B-LCL, FACS).
T10 construct: Acid-stripped B-LCL
For B38, the IC50 was < 1000 nM. In the case of B39, the IC50 is reported as < 1000 nM. For B40, the IC50 was 4000 nM. For B41, the IC50 was < 1000 nM. Binder B42 has an IC50 of 1000 nM.

These binders were tested against T11, HLA-B61 (B*4002) (human) (assay: cell competition vs GEFGGC(FI)GSV, stripped Swei007 B-LCL, FACS).
T11 construct: Acid-stripped B-LCL
In the case of B43, the IC50 is reported as < 1000 nM. With B36 the IC50 was < 1000 nM. With B44 the IC50 was < 1000 nM. With B37 the IC50 was < 1000 nM.

The binders below were run against T12, HLA-B62 (B*1501) (human) (assay: cell competition vs YLGEFSC(FI)TY, stripped BSM B-LCL, FACS).
T12 construct: Acid-stripped B-LCL
B45 gave an IC50 of 2560 nM. B46 showed an IC50 of 2390 nM. B47 gave an IC50 of 1660 nM. Work on B48 yielded an IC50 of 2410 nM. B49 was tested, and the IC50 was < 1000 nM.

What follows are binders tested against T13, HLA-A1 (A*0101) (human) (assay: cellular competition binding assay on acid-stripped B-LCL CAA, flow cytometry; competitor Fl-labeled reference peptide YLEPAC(Fl)AKY).
T13 construct: MHC class I molecule on mild-acid-stripped EBV-transformed B cells (CAA)
For B50, the IC50 was < 1000 nM. Binder B51 has an IC50 of 2000 nM.

These binders were tested against T14, HLA-B35 (B*3501) (human) (assay: cell competition vs NPDIVC(FI)YQY, stripped BVR B-LCL, FACS).
T14 construct: Acid-stripped B-LCL
Binder B52 has an IC50 of 1580 nM. B53 was tested, and the IC50 was < 1000 nM. With B54 the IC50 was 2830 nM. For B55, the IC50 was < 1000 nM. B56 showed an IC50 of 1980 nM. B57 showed an IC50 of 2600 nM. In the case of B58, the IC50 is reported as < 1000 nM. For B59, the IC50 was < 1000 nM. For B60, the IC50 was 2240 nM.

What follows are binders tested against T15, HLA-B62 (B*1501) (human) (assay: competition vs YLGEFSC(FI)TY on stripped B-LCL, FACS).
T15 construct: HLA class I on acid-stripped EBV-transformed B cells (B-LCL)
For B61, the IC50 was < 1000 nM. In the case of B62, the IC50 is reported as 2410 nM. For B63, the IC50 was 2390 nM. Binder B64 has an IC50 of 2560 nM.
